A word on the Kd: it is the free concentration of one partner at which half of the binding sites on the other are occupied at equilibrium, for simple one-to-one binding. As usually defined, the koff is a measure of how fast the partners let go of each other. A word on the kon: it is the second-order rate constant of association. A lower kon goes with slow association.

Kd, koff and kon data for seven molecules are collected here from patent US20240207432A1 (BIOSION, published 2024).

First the molecules themselves.
B1: huA1E4F7D4-V2 (antibody, human IgG1, kappa, V domains shown)
VH: QVQLVQSGAEVKKPGASVKVSCKASGYSFTTHWIHWVRQAPGQGLEWIGTIFPSNAYAVYNQKFRDRATMTADRSISTAYIELSRLRSDDTAVYYCARASYFDYWGQGTTVTVSS
VL: EIVLTQSPATLSLSPGERATLSCRASQNIGTSIHWFQQKPGGSPRLLIKYASESISGIPSRFSGSGSGTDFTLTISSLEPEDFAVYYCQHSHSWPFTFGQGTKLEIKR
notes: Positions of the X residues are printed in CLM-00002, CLM-00003 and CLM-00005; Tested as cell supernatant
B2: huA1E4F7D4-V5 (antibody, human IgG1, kappa, V domains shown)
VH: QVQLVQSGAEVKKPGASVKVSCKASGYSFTTHWIHWVRQAPGQGLEWIGTIFPSNAYAVYNQKFRDRATMTRDRSISTAYIELSRLRSDDTAVYYCARASYFDYWGQGTTVTVSS
VL: EIVLTQSPATLSLSPGERATLSCRASQNIGTSIHWFQQKPGGSPRLLIKYASESISGIPSRFSGSGSGTDFTLTISSLEPEDFAVYYCQHSHSWPFTFGQGTKLEIKR
notes: Positions of the X residues are given in the claims; Tested as cell supernatant
B3: huA1E4F7D4-V7 (antibody, human IgG1, kappa, V domains shown)
VH: QVQLVQSGAEVKKPGASVKVSCKASGYSFTTHWIHWVRQAPGQGLEWIGTIFPSNAYAVYNQKFRDRATMTADRSISTAYIELSRLRSDDTAVYYCARASYFDYWGQGTTVTVSS
VL: EIVLTQSPATLSLSPGERATLSCRASQNIGTSIHWFQQKPGQSPRLLIKYASESISGIPSRFSGSGSGTDFTLTISSLEPEDFAVYYCQHSHSWPFTFGQGTKLEIKR
notes: as for B2
B4: huA1E4F7D4-V1 (antibody, human IgG1, kappa, V domains shown)
VH: QVQLVQSGAEVKKPGASVKVSCKASGYSFTTHWIHWMKQRPGQGLEWIGTIFPSNAYAVYNQKFRDRAIMTADRSISTAYIELTRLRSDDTAVYYCARASYFDYWGQGTTVTVSS
VL: DILLTQSPATLSLSPGERATLSCRASQNIGTSIHWFQQKPGGSPRLLIKYASESISGIPSRFSGSGSGTDFTLTISSVEPEDFAVYYCQHSHSWPFTFGQGTKLEIKR
notes: Positions of the X residues are printed in CLM-00003 and CLM-00005; Tested as cell supernatant
B5: huA1E4F7D4-V6 (antibody, human IgG1, kappa, V domains shown)
VH: QVQLVQSGAEVKKPGASVKVSCKASGYSFTTHWIHWVRQAPGQGLEWIGTIFPSNAYAVYNQKFRDRATMTADTSISTAYIELSRLRSDDTAVYYCARASYFDYWGQGTTVTVSS
VL: EIVLTQSPATLSLSPGERATLSCRASQNIGTSIHWFQQKPGGSPRLLIKYASESISGIPSRFSGSGSGTDFTLTISSLEPEDFAVYYCQHSHSWPFTFGQGTKLEIKR
notes: as for B2
B6: huA1E4F7D4-V4 (antibody, human IgG1, kappa, V domains shown)
VH: QVQLVQSGAEVKKPGASVKVSCKASGYSFTTHWIHWVRQAPGQGLEWIGTIFPSNAYAVYNQKFRDRVTMTADRSISTAYIELSRLRSDDTAVYYCARASYFDYWGQGTTVTVSS
VL: EIVLTQSPATLSLSPGERATLSCRASQNIGTSIHWFQQKPGGSPRLLIKYASESISGIPSRFSGSGSGTDFTLTISSLEPEDFAVYYCQHSHSWPFTFGQGTKLEIKR
notes: as for B2
B7: huA1E4F7D4-V3 (antibody, human IgG1, kappa, V domains shown)
VH: QVQLVQSGAEVKKPGASVKVSCKASGYTFTTHWIHWVRQAPGQGLEWIGTIFPSNAYAVYNQKFRDRATMTADRSISTAYIELSRLRSDDTAVYYCARASYFDYWGQGTTVTVSS
VL: EIVLTQSPATLSLSPGERATLSCRASQNIGTSIHWFQQKPGGSPRLLIKYASESISGIPSRFSGSGSGTDFTLTISSLEPEDFAVYYCQHSHSWPFTFGQGTKLEIKR
notes: as for B2

The assay deals with T1, human TROP2-his protein (human, UniProt P09758 27-274).
T1 construct: Biotin-labelled in the ELISAs, unlabelled analyte in Biacore; also called biotin-labeled human TROP2-his protein; biotin human Trop2-his
T1 sequence: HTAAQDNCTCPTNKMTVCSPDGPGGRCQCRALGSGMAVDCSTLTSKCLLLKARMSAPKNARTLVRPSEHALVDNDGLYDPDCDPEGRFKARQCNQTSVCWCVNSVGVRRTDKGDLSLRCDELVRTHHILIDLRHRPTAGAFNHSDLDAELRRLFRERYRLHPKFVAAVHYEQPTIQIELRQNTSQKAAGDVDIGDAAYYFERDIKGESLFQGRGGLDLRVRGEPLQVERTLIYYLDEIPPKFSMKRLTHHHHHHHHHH
The assay can be described thus: SPR Biacore T200, supernatant antibody captured on anti-human IgG CM5 chip, 40 nM human TROP2-his. The method, then: The goat anti-human IgG (GE healthcare, Cat #BR100839, Human Antibody Capture Kit) was covalently linked to a CM5 chip instead of goat anti-mouse IgG. […] The human TROP2-his protein at the concentration of 40 nM was used instead of serially diluted human TROP2-his protein.
In general terms: Surface plasmon resonance follows binding to a sensor surface in real time, without labels.
Molecule B1 registered a dissociation constant Kd of 0.215 nM, a koff of 0.000188 s⁻¹ and a kon of 874000 M⁻¹ s⁻¹.

As to B2, the Kd was 0.353 nM, the dissociation rate constant (koff) is 0.000204 s⁻¹ and the kon worked out at 577000 M⁻¹ s⁻¹.

Molecule B3 yielded a Kd of 0.216 nM, a koff of 0.000192 s⁻¹ and a kon of 887000 M⁻¹ s⁻¹.

B4: the Kd came out at 0.238 nM, the koff came to 0.000197 s⁻¹ and the kon worked out at 830000 M⁻¹ s⁻¹.

In turn, B5 returned a Kd of 0.166 nM, a koff of 0.000179 s⁻¹ and a kon of 1.08e+06 M⁻¹ s⁻¹.

For the molecule B6, the Kd was 0.215 nM, the koff came out at 0.00019 s⁻¹ and the kon was determined as 883000 M⁻¹ s⁻¹.

The molecule B7 yielded a Kd of 0.238 nM, a dissociation rate constant (koff) of 0.000199 s⁻¹ and a kon of 836000 M⁻¹ s⁻¹.
